Test results: paper PMC9120032, “SARS-CoV-2 ORF6 disrupts nucleocytoplasmic trafficking to advance viral replication” (Communications Biology, 2022)

Assays:
[1] = target: T1, bacterially purified recombinant STAT1 protein (human, UniProt P42224 1-750); assay: pull-down; GST fusion proteins immobilised on glutathione-Sepharose 4B beads; recombinant proteins (100 pmol each) in 200 μL transport buffer (20 mM HEPES pH 7.3, 110 mM potassium acetate, 2 mM magnesium acetate, 1 mM EGTA, 1 mM DTT) with 0.1% Triton X-100, 4 °C, 1 h; five washes; western blot; details: both partners purified
T1 construct: human STAT1, full length, subcloned into pGEX6P2 from the pcDNA5/FRT/3xFLAG expression vector; The methods tell in general that GST tags were cleaved with PreScission or thrombin; also called STAT1 recombinant protein; Flag-h-STAT1; source: bacterially expressed recombinant protein, purified; not shown: Flag, N-terminal, kept
T1 sequence: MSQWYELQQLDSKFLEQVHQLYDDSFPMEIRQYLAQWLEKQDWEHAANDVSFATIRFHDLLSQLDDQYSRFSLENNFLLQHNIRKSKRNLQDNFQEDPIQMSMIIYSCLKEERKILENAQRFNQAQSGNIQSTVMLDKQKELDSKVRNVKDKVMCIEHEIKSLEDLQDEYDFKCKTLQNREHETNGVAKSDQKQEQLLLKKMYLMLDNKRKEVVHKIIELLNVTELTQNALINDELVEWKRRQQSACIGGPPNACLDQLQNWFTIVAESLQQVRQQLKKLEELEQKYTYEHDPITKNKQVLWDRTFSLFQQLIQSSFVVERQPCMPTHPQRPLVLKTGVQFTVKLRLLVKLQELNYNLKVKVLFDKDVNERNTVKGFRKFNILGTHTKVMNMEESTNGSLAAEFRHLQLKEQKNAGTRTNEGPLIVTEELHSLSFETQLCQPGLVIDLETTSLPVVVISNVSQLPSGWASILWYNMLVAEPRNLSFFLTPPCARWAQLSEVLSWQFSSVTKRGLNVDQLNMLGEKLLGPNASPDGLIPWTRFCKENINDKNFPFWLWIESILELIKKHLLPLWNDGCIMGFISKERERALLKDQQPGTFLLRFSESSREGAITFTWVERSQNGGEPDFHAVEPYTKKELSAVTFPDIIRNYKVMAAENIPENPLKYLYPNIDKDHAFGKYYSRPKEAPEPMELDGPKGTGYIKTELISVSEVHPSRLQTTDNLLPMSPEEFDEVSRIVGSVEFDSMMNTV

[2] = target: T2, Flag-importin α1 recombinant protein (human, UniProt P52292 1-529); assay: as above; details: both partners purified
T2 construct: human importin α1 (KPNA2); also called Flag-Impα1; FLAG-h-importin α1; source: bacterially expressed recombinant protein, purified; not shown: FLAG, N-terminal, kept

B1: GST-GFP fused with the C-terminal peptide of ORF6 wild type (49-61 amino acids) (peptide)
chain: YSQLDEEQPMEID
notes: SARS-CoV-2 ORF6, the 13 amino acids 49-61 of the C-terminal region (M0); also called GST-M0-GFP; M0; not shown: GST, N-terminal, kept; GFP, C-terminal, kept
[1]
  binding result: binds

B2: GST-GFP-fused ORF6 full-length protein (natural protein)
chain: MFHLVDFQVTIAEILLIIMRTFKVSIWNLDYIINLIIKNLSKSLTENKYSQLDEEQPMEID
notes: Held on glutathione Sepharose beads by its GST; also called GST-GFP-ORF6; GST-GFP-ORF6 wild type (WT); not shown: GST, N-terminal, kept; GFP, N-terminal, kept
[2]
  binding result: binds
